Assay results as given in publication PMC3142617 (Cell host & microbe, 2011).

Key:
SEC-MALS = target: the molecule itself; test: SEC-MALS
AUC = target: the molecule itself; test: AUC

B1: L6TIR (L6 TIR domain, residues 29-229) (domain or fragment, flax (Linum usitatissimum))
chain: SNAKDSIVNDDDDSTSEVDAISDSTNPSGSFPSVEYEVFLSFRGPDTREQFTDFLYQSLRRYKIHTFRDDDELLKGKEIGPNLLRAIDQSKIYVPIISSGYADSKWCLMELAEIVRRQEEDPRRIILPIFYMVDPSDVRHQTGCYKKAFRKHANKFDGQTIQNWKDALKKVGDLKGWHIGKNDKQGAIADKVSADIWSHISKEN
- stoichiometry N (SEC-MALS): ~2
- Kd (AUC): 20.3 µM
- stoichiometry N (AUC): 2
